Experimental data from IntAct's records for PubMed 18940603.

B1: Ras-related protein Rab-27B (Mus musculus), Q99P58 (parent)
chain: MTDGDYDYLIKLLALGDSGVGKTTFLYRYTDNKFNPKFITTVGIDFREKRVVYDTQGADGASGKAFKVHLQLWDTAGQERFRSLTTAFFRDAMGFLLMFDLTSQQSFLNVRNWMSQLQANAYCENPDIVLIGNKADLPDQREVNERQARELAEKYGIPYFETSAATGQNVEKSVETLLDLIMKRMEKCVEKTQVPDTVNGGNSGKLDGEKPAEKKCAC
partner: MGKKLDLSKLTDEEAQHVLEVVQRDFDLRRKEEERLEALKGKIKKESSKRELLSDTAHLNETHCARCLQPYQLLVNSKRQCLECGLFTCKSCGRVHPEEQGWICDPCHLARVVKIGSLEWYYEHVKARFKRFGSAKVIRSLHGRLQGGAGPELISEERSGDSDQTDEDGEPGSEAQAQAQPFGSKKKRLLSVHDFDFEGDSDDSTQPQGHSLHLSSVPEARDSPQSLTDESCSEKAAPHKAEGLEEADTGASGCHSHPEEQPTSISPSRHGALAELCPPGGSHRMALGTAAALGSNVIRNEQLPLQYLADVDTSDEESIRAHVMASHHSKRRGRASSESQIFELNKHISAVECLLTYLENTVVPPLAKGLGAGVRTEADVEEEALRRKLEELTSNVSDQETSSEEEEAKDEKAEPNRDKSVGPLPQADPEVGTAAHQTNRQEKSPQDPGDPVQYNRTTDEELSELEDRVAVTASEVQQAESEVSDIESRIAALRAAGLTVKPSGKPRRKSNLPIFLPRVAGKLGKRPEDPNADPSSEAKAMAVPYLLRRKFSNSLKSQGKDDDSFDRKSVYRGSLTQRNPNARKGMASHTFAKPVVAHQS
B2: Ras-related protein Rab-27A (Mus musculus), Q9ERI2 (parent)
chain: MSDGDYDYLIKFLALGDSGVGKTSVLYQYTDGKFNSKFITTVGIDFREKRVVYRANGPDGAVGRGQRIHLQLWDTAGQERFRSLTTAFFRDAMGFLLLFDLTNEQSFLNVRNWISQLQMHAYCENPDIVLCGNKSDLEDQRAVKEEEARELAEKYGIPYFETSAANGTNISHAIEMLLDLIMKRMERCVDKSWIPEGVVRSNGHTSADQLSEEKEKGLCGC
partner: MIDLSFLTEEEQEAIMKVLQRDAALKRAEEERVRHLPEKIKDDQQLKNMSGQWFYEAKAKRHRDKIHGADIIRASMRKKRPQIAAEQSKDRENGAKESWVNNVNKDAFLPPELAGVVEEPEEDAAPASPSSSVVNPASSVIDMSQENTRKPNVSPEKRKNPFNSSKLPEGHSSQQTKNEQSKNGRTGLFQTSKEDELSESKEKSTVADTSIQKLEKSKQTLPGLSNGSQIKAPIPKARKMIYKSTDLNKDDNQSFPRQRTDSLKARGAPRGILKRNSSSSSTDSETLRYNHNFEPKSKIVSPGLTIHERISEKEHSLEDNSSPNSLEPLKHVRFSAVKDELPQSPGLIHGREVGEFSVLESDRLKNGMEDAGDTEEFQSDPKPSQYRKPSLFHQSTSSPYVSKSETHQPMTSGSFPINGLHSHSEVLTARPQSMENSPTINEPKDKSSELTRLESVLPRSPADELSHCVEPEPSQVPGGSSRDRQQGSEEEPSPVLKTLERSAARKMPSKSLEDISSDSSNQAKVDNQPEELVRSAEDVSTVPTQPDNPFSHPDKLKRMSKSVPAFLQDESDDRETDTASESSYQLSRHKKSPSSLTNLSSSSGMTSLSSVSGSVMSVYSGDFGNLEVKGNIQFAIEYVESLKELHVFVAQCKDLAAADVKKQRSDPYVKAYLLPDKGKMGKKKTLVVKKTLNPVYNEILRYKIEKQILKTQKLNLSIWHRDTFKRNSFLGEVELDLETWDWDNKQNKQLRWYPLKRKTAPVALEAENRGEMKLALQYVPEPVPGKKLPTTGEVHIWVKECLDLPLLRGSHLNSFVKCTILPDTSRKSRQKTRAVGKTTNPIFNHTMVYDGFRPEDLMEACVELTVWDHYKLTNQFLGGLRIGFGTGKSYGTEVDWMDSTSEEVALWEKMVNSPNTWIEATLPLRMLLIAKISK
B3: Ras-related protein Rab-27A (Mus musculus), Q9ERI2 (parent)
chain: B2 chain
partner: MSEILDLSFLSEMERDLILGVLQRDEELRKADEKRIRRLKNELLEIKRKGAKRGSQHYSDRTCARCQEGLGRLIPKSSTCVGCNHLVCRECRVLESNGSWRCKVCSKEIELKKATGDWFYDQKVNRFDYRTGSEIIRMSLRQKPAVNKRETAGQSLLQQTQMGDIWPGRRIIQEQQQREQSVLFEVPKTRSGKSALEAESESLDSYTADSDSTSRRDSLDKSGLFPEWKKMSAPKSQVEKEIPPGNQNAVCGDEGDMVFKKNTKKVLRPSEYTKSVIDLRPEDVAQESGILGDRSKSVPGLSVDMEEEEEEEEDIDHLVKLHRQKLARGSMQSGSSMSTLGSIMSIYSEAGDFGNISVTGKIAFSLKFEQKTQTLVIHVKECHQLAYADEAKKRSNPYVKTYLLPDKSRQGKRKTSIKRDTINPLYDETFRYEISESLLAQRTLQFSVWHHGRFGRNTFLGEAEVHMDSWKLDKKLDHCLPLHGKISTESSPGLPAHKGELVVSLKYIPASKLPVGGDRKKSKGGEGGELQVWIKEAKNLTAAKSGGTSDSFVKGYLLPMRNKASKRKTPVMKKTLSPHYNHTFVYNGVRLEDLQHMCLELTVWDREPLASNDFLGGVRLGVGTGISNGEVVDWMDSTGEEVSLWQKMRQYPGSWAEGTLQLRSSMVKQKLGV
B4: Ras-related protein Rab-27A (Mus musculus), Q9ERI2 (parent)
chain: B2 chain
partner: B1 partner
B5: Ras-related protein Rab-27B (Mus musculus), Q99P58 (parent)
chain: B1 chain
partner: B3 partner
B6: Ras-related protein Rab-27B (Mus musculus), Q99P58 (parent)
chain: B1 chain
partner: B2 partner

Variants of: B1
Conditions: with melph_human MLPH

Row | effect of a mutation on the interaction | Variant
1 | increasing interaction | C123S;C188S
2 | increasing interaction | C188S

Variants of: B2
Conditions: with sytl2_human SYTL2, Q9HCH5

Row | effect of a mutation on the interaction | Variant
3 | increasing interaction | C123S;C188S

Variants of: B3
Conditions: with Sytl4, Q9R0Q1-1

Row | effect of a mutation on the interaction | Variant
4 | increasing interaction | C123S
5 | increasing interaction | C123S;C188S
6 | increasing interaction | C188S

Variants of: B4
Conditions: with melph_human MLPH

Row | effect of a mutation on the interaction | Variant
7 | increasing interaction | C188S
8 | increasing interaction | C123S;C188S

Variants of: B5
Conditions: with Sytl4, Q9R0Q1-1

Row | effect of a mutation on the interaction | Variant
9 | increasing interaction | C188S
10 | increasing interaction | C123S;C188S
11 | increasing interaction | C123S

Variants of: B6
Conditions: with sytl2_human SYTL2, Q9HCH5

Row | effect of a mutation on the interaction | Variant
12 | increasing interaction | C123S;C188S
